Measurements reported in the supplement of paper PMC9732359.
± gives the uncertainty stated by the source.

Assay: protein stability index of a GFP-peptide fusion (yeast GPS) (PSI 1-4); higher = more stable; sorted into four equal gates, so the index is relative within each strain
Procedure, shortened: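 The protein stability index combines read frequencies across sorting gates, each weighted by its gate number and then summed. To obtain those frequencies, a pooled yeast library of GFP fusions to tiled 17-residue yeast protein peptides, on a plasmid also expressing Cherry, was grown to mid-log phase in leucine-free medium. The cells were sorted into four equal gates by GFP/Cherry ratio before plasmid amplification by PCR and Illumina sequencing.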

Sequence | protein stability index (doa10∆) | protein stability index (pdr5∆) | protein stability index (san1∆) | protein stability index (ubr1∆)
LNLLSQNNTTKFHSELQ [RPN12] | 2.47 ± 0.091 | 2.24 ± 0.078 | 1.67 ± 0.12 | 2.16 ± 0.12
NTSLISLFTYFREAIVA [PRP8] | 1.3 ± 0.049 | 1.49 ± 0.054 | 1.34 ± 0.1 | 1.44 ± 0.049
LRSDFYILANHYLSRVL [YJL039C/NUP192] | 2.81 ± 0.054 | 2.85 ± 0.07 | 2.59 ± 0.07 | 2.44 ± 0.044
GLFQVLHNFESVAPTKQ [NUT1] | 2.99 ± 0.075 | 2.87 ± 0.075 | 2.75 ± 0.052 | 3.12 ± 0.035
RSLEKVNNSVSKTGSVD [SSN2] | 2.38 ± 0.11 | 3.53 ± 0.15 | 3.36 ± 0.14 | 3.37 ± 0.11
RRKDTSMVLFFVCLSCS [RPB9] | 1.3 ± 0.052 | 1.32 ± 0.07 | 1.4 ± 0.12 | 1.38 ± 0.039
RINSTDEDLHEFQIEDA [SRB8] | 2.86 ± 0.14 | 2.87 ± 0.078 | 2.86 ± 0.12 | 3.22 ± 0.2
SVTIISAGNDKMVKAWN [ASC1] | 2.35 ± 0.22 | – | – | –
DEDDDQPMISPDNSIFG [SWI3] | 3.22 ± 0.078 | 3.35 ± 0.083 | 3.2 ± 0.086 | 2.94 ± 0.088
QLEGFESRKAFFLGYMI [RPB2] | 1.22 ± 0.088 | 2.42 ± 0.075 | 1.41 ± 0.079 | 2.49 ± 0.045
KLSDSKTSNIESVPIYS [BRR2] | 2.5 ± 0.054 | 2.64 ± 0.062 | 2.33 ± 0.042 | 2.6 ± 0.054
FMDEIDSIGSTRVEGSG [RPT6] | 2.57 ± 0.076 | 2.56 ± 0.12 | 2.84 ± 0.069 | 2.46 ± 0.073
DKARRLGYKAKQGFVIY [RPL15A] | 3.24 ± 0.16 | 3.33 ± 0.23 | 2.91 ± 0.14 | 3.28 ± 0.25
EDISKATHLPKDNVEHL [RPN9] | 2.91 ± 0.084 | 3.13 ± 0.076 | 3.12 ± 0.091 | 3.26 ± 0.061
NLHALSMSLQSKNLGEI [SWI1] | 2.57 ± 0.058 | 2.61 ± 0.077 | 2.04 ± 0.17 | 2.66 ± 0.068
FEWDISNSDNCPEEFAE [SNF5] | 3.12 ± 0.11 | 3.19 ± 0.15 | 3.11 ± 0.1 | 3.29 ± 0.072
DKTAVKLDTEVKNTNAN [SWP82] | 2.5 ± 0.077 | 2.83 ± 0.076 | 2.88 ± 0.099 | 1.96 ± 0.056
LADWRIRPLSKPMTAYA [RRP6] | 2.82 ± 0.13 | 3.15 ± 0.13 | 2.7 ± 0.19 | 2.98 ± 0.088
DDEDDEHNPTIVGGLYY [AAR2] | 3.22 ± 0.12 | 3.14 ± 0.079 | 3.17 ± 0.064 | 3.4 ± 0.1
SPMLYKVPDISSDGQLK [BRR2] | 2.52 ± 0.047 | 2.56 ± 0.045 | 2.61 ± 0.054 | 2.58 ± 0.03
EVYTLVDSQGLPYNWDA [ARP7] | 3.31 ± 0.2 | 3.56 ± 0.2 | 2.85 ± 0.14 | 3.22 ± 0.15
EEIRSQIDHFKSMLSKP [SWI3] | 1.65 ± 0.045 | 2.32 ± 0.065 | 2.67 ± 0.053 | 2.35 ± 0.04
YSRISKLKQLLDESSEQ [YIL149C/MLP2] | 2.25 ± 0.077 | 2.67 ± 0.088 | 1.73 ± 0.14 | 2.4 ± 0.053
PGEYITTIKAIFDGNYG [YMR129W/POM152] | 2.62 ± 0.066 | 2.72 ± 0.071 | 2.77 ± 0.069 | 2.95 ± 0.07
TKLRAFVYNKVNETEAI [YGR119C/NUP57] | 2.3 ± 0.084 | 2.69 ± 0.064 | 2.68 ± 0.061 | 2.59 ± 0.059
SVEWMKVSPSMCGVIVK [SIN4] | 1.74 ± 0.055 | 1.69 ± 0.051 | 1.69 ± 0.091 | 1.54 ± 0.063
KAIRGMVSHKTARGKAA [RPL16B] | 1.94 ± 0.056 | 2.01 ± 0.057 | 2.14 ± 0.087 | 2.62 ± 0.039
